# Target: ZIKV PR (Puerto Rican strain, PRVABC59) virus (Zika virus strain PRVABC59)
# Assay: cell-based or functional assay
substance,measurement,value
Z004 (antibody),"micro-neutralization (MN50) in Vero cells, IC50",1.4 ng/mL

# Reference: patent US20210238262A1
